T1: GvpC C-terminal fragment Cterm (Halobacterium salinarum, UniProt P24574 329-382)
T1 construct: GvpC of Halobacterium salinarum, aa 329-382, the globular C-terminal domain with a zinc-finger motif; GFP fragment at the N- or C-terminus; source: Hfx. volcanii WR340 transformant, split-GFP fusion in living cells
T1 sequence (looked up): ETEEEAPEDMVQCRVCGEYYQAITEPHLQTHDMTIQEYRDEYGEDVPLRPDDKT

B1: GvpH fused to NGFP or CGFP (natural protein, Halobacterium salinarum, UniProt P24372 1-182, looked up)
chain: MVPDENDDASDDQSSQLSGLLDQLHTLVEVLADIEEEGGHRHESGRIDRGNARIDYDYDVSIGLGRADGSSYDEEPSSNRSRSEQRSGQQRTTEDSIHVETRGGTSGDELVVVADLPGVTDDDVDVALDTDEQALTLRVDDDVVERVVLDRPDVAITDMTLRNQVLEIRLARTSDTDGGEST
notes: accessory gas vesicle protein GvpH of Halobacterium salinarum; construct of earlier work; source: Hfx. volcanii WR340 transformant, split-GFP fusion in living cells
B2: GvpI fused to NGFP or CGFP (natural protein, Halobacterium salinarum, UniProt Q9HI24 1-144, looked up)
chain: MSDKQQQKHKQKARQARVKAQINRDKARRNLLRQREKLARRRTRNRKQSEPRRDDSDGDDTDGETVKNPAAHSTMPPQKSNAENAVRNSHSTVPKTPKYSDVTARERLYGQRLHQKTAGGNSEASAPSDESASGSPTEDEVNDE
notes: accessory gas vesicle protein GvpI of Halobacterium salinarum; construct of earlier work; source: Hfx. volcanii WR340 transformant, split-GFP fusion in living cells
B3: GvpL fused to NGFP or CGFP (natural protein, Halobacterium salinarum, UniProt Q9HI27 1-281, looked up)
chain: MTDHRPSPEEEQTTANEERTVSNGRYLYCVVDTTSSESATLSTTGVDDNPVYVVEADGVGAVVHDCETVYETEDLEQVKRWLVTHQQVVDAASDAFGTPLPMRFDTVLEGGDASIERWLEDHYEGFRDELASFAGVWEYRINLLWDSAPFEETIADRDDRLRELRQRQQQSGAGKKFLLEKQSDQRLQELKRERRTELADQLKEAITPVVNDLTEQDTNTPLQDEHSSIEKEQIVRFAVLADEDDETALGDRLDTIVEHEGVEIRFTGPWPPYTFAPDIGK
notes: accessory gas vesicle protein GvpL of Halobacterium salinarum; construct of earlier work; source: Hfx. volcanii WR340 transformant, split-GFP fusion in living cells
B4: GvpG fused to NGFP or CGFP (natural protein, Halobacterium salinarum, UniProt P24371 1-83, looked up)
chain: MFIIDDLFVSPFFSLLDILQTMALDEMYDTKSIRDDIKENQLLYEVGERSDEEYQQRKQALESQLEMAEQVQEQMRDRMEVKK
notes: accessory gas vesicle protein GvpG of Halobacterium salinarum; construct of earlier work; source: Hfx. volcanii WR340 transformant, split-GFP fusion in living cells
B5: GvpK fused to NGFP or CGFP (natural protein)
chain: not shown
notes: accessory gas vesicle protein GvpK of Halobacterium salinarum; construct of earlier work; source: Hfx. volcanii WR340 transformant, split-GFP fusion in living cells
B6: GvpJ fused to NGFP or CGFP (natural protein, Halobacterium salinarum, UniProt P24374 1-114, looked up)
chain: MSDPKPTRSQGDLAEMLEMLLDKGVVVNADIAVSVGDTELLGIELRAAIASFETAAEYGLEFPTGTDMERVESAANISPDQSDPASETQSETESTNPLSDDSTPTASTSAEETK
notes: accessory gas vesicle protein GvpJ of Halobacterium salinarum; construct of earlier work; source: Hfx. volcanii WR340 transformant, split-GFP fusion in living cells
B7: GvpM fused to NGFP or CGFP (natural protein, Halobacterium salinarum, UniProt P24377 1-84, looked up)
chain: MEPTKDETHAIVEFVDVLLRDGAVIQADVIVTVADIPLIGISLRAAIAGMTTMTEYGLFEEWDAAHRQQSEAFTTSPTADRRED
notes: accessory gas vesicle protein GvpM of Halobacterium salinarum; construct of earlier work; source: Hfx. volcanii WR340 transformant, split-GFP fusion in living cells
B8: GvpC fused to NGFP or CGFP (natural protein, Halobacterium salinarum, UniProt P24574 1-382, looked up)
chain: MSVTDKRDEMSTARDKFAESQQEFESYADEFAADITAKQDDVSDLVDAITDFQAEMTNTTDAFHTYGDEFAAEVDHLRADIDAQRDVIREMQDAFEAYADIFATDIADKQDIGNLLAAIEALRTEMNSTHGAFEAYADDFAADVAALRDISDLVAAIDDFQEEFIAVQDAFDNYAGDFDAEIDQLHAAIADQHDSFDATADAFAEYRDEFYRIEVEALLEAINDFQQDIGDFRAEFETTEDAFVAFARDFYGHEITAEEGAAEAEAEPVEADADVEAEAEVSPDEAGGESAGTEEEETEPAEVETAAPEVEGSPADTADEAEDTEAEEETEEEAPEDMVQCRVCGEYYQAITEPHLQTHDMTIQEYRDEYGEDVPLRPDDKT
notes: GvpC of the p-vac region of Halobacterium salinarum; gvpC amplified from the p-vac region; GFP fragment at the N- or C-terminus, 14 or 16 aa linker; source: Hfx. volcanii WR340 transformant, split-GFP fusion in living cells
B9: GvpN fused to NGFP or CGFP (natural protein, Halobacterium salinarum, UniProt Q9HI16 1-347, looked up)
chain: MTNESRKRKVRGSQIRSSRGDKKQGRSQSRDDKEIERLERQNDARGQESSTHVDEGFVPEEQSFIETESVNRVESRMERWLDVGRPVHLIGPTGCGKTSLAMHVARERDRPVVWINGDAELTTSDLVGEYAEKERISEHDQFIHNVVKSKDIIRDRWVDNPLTLAVQEGATLVYNEFSRTKPVANNVLLSVFEEGVLELPGKRGKSRYVDVHPEFRTILTSNSVEYAGVHEPQDALLDRLIGIYMDFYDLDTEIEIVRAHVDKSADTNVEDIVRVLRELRERLDITVGTRAAIMANEGATTVDTVDQAVLTDICTDVLASKVAQRSDVRGLREEIESAIDDMEVALS
notes: GvpN of the p-vac region of Halobacterium salinarum; gvpN amplified from the p-vac region; GFP fragment at the N- or C-terminus, 14 or 16 aa linker; source: Hfx. volcanii WR340 transformant, split-GFP fusion in living cells

For one data set, the target named is B8. Put plainly: split reporter (BiFC, NanoBiT); split-GFP (NGFP and CGFP of salt-stable mGFP2) in Hfx. volcanii transformants, 24 h 37 °C then 24 h 30 °C; relative fluorescence (rf) against the wild type; the highest of eight tag combinations is given. The settings on record: partners not purified.
On to B1, for which the “relative fluorescence (rf)” value is more than 7.5 LAU/mm^2.
As for B2, the “relative fluorescence (rf)” value is more than 7.5 LAU/mm^2.
Still for that read-out and setting: the same measure for B3: 28.6 LAU/mm^2.

Another data set deals with B9. The data set is described as above. The settings on record: partners not purified.
For B4, the “relative fluorescence (rf)” value is less than 5 LAU/mm^2.
As to B1, the “relative fluorescence (rf)” value is less than 5 LAU/mm^2.
Still for that read-out and setting: the same measure for B5: less than 5 LAU/mm^2; for B2: less than 5 LAU/mm^2; for B6: less than 5 LAU/mm^2.
Still for that read-out and setting: in the case of B3 it was 16.9 LAU/mm^2; in that of B7, less than 5 LAU/mm^2.

For a further data set, the target named is T1, GvpC C-terminal fragment Cterm. The data set is described as above. The settings on record: partners not purified.
As to B1, the “relative fluorescence (rf)” value amounted to 42.6 LAU/mm^2.
Same read-out and setting: in the case of B2 it was more than 18 LAU/mm^2; in that of B3, more than 18 LAU/mm^2.

A further data set concerns the molecule itself. The data set is described as above.
Conditions: not given
B8: the “relative fluorescence (rf)” value was determined as 14.5 LAU/mm^2.
In the case of B9, the “relative fluorescence (rf)” value was more than 10 LAU/mm^2.

The values above are taken from article PMC9372576, “Interaction of the gas vesicle proteins GvpA, GvpC, GvpN, and GvpO of Halobacterium salinarum” (Frontiers in Microbiology, 2022).
